In the array DNA melting data of Ke et al.:

Assay: melting temperature; melt of duplexes
Settings: sodium 0.0675 M; strand 1 µM

Question: Which Tm does the source give for “CGACGTGCATGATGTGCTG+CAGCACATCGAGCACGTCG ((((((((..(((((((((+)))))))))..))))))))” here?
Answer: The Tm was 56.1 °C.

Question: For “CGACGTGCCTCATGTGCTG+CAGCACATCTAGCACGTCG ((((((((...((((((((+))))))))...))))))))”, which Tm is on record?
Answer: Its Tm is 47.8 °C.

Question: Which Tm does the source give for “CGACGTGCCAAATGTGCTG+CAGCACATTTAGCACGTCG ((((((((.((((((((((+)))))))))).))))))))” here?
Answer: The Tm was 54.4 °C.

Question: Which Tm does the source give for “CGACGTGCAGAATGTGCTG+CAGCACATACTGCACGTCG ((((((((((.((((((((+)))))))).))))))))))” here?
Answer: The Tm was 57.8 °C.

Question: For “CGACGTGCCTAATGTGCTG+CAGCACATTGTGCACGTCG ((((((((..(((((((((+)))))))))..))))))))”, which Tm is on record?
Answer: Its Tm is 49 °C.

Question: For “CGACGTGCGGAATGTGCTG+CAGCACATAATGCACGTCG ((((((((...((((((((+))))))))...))))))))”, which Tm is on record?
Answer: The Tm was 52 °C.

Question: With “CGACGTGCTGCATGTGCTG+CAGCACATCTTGCACGTCG ((((((((...((((((((+))))))))...))))))))” as the substance, how does the Tm read?
Answer: Its Tm is 50.1 °C.

Question: With “CGACGTGCTATATGTGCTG+CAGCACATATAGCACGTCG (((((((((((((((((((+)))))))))))))))))))” as the substance, how does the Tm read?
Answer: The Tm was 61.3 °C.

Question: For “CGACGTGCTTTATGTGCTG+CAGCACATTTCGCACGTCG ((((((((...((((((((+))))))))...))))))))”, which Tm is on record?
Answer: Its Tm is 47.7 °C.

Question: For “CGACGTGCTCGATGTGCTG+CAGCACATCAGGCACGTCG ((((((((..(((((((((+)))))))))..))))))))”, which Tm is on record?
Answer: Its Tm is 55.4 °C.

Question: With “CGACGTGCTTTATGTGCTG+CAGCACATCACGCACGTCG ((((((((.(.((((((((+)))))))).).))))))))” as the substance, how does the Tm read?
Answer: Its Tm is 47.9 °C.

Question: For “CGACGTGCGTCATGTGCTG+CAGCACATAGCGCACGTCG (((((((((..((((((((+))))))))..)))))))))”, which Tm is on record?
Answer: The Tm was 55.1 °C.

Question: Which Tm does the source give for “CGACGTGCCGAATGTGCTG+CAGCACATCAGGCACGTCG (((((((((..((((((((+))))))))..)))))))))” here?
Answer: Its Tm is 55.4 °C.

Question: For “CGACGTGCCTGATGTGCTG+CAGCACATTTCGCACGTCG ((((((((...((((((((+))))))))...))))))))”, which Tm is on record?
Answer: The Tm was 48.2 °C.

Question: Which Tm does the source give for “CGACGTGCAGAATGTGCTG+CAGCACATGGAGCACGTCG ((((((((...((((((((+))))))))...))))))))” here?
Answer: Its Tm is 55.6 °C.

Question: For “CGACGTGCTTAATGTGCTG+CAGCACATTATGCACGTCG ((((((((.((((((((((+)))))))))).))))))))”, which Tm is on record?
Answer: Its Tm is 56.5 °C.

Question: Which Tm does the source give for “CGACGTGCTACATGTGCTG+CAGCACATGCGGCACGTCG ((((((((..(((((((((+)))))))))..))))))))” here?
Answer: Its Tm is 54.1 °C.

Question: For “CGACGTGCCATATGTGCTG+CAGCACATGGGGCACGTCG (((((((((..((((((((+))))))))..)))))))))”, which Tm is on record?
Answer: Its Tm is 56.7 °C.

Question: With “CGACGTGCAAGATGTGCTG+CAGCACATGTTGCACGTCG ((((((((((.((((((((+)))))))).))))))))))” as the substance, how does the Tm read?
Answer: Its Tm is 57.8 °C.

Question: Which Tm does the source give for “CGACGTGCCTGATGTGCTG+CAGCACATTCGGCACGTCG (((((((((..((((((((+))))))))..)))))))))” here?
Answer: The Tm was 54.7 °C.

Question: With “CGACGTGCACTATGTGCTG+CAGCACATCCCGCACGTCG ((((((((...((((((((+))))))))...))))))))” as the substance, how does the Tm read?
Answer: The Tm was 42.6 °C.

Question: Which Tm does the source give for “CGACGTGCTTAATGTGCTG+CAGCACATTTTGCACGTCG ((((((((..(((((((((+)))))))))..))))))))” here?
Answer: Its Tm is 52.5 °C.

Question: For “CGACGTGCTGGATGTGCTG+CAGCACATTCAGCACGTCG ((((((((((.((((((((+)))))))).))))))))))”, which Tm is on record?
Answer: The Tm was 60 °C.

Question: Which Tm does the source give for “CGACGTGCTAGATGTGCTG+CAGCACATTCGGCACGTCG ((((((((...((((((((+))))))))...))))))))” here?
Answer: The Tm was 52.1 °C.

Question: Which Tm does the source give for “CGACGTGCAATATGTGCTG+CAGCACATACAGCACGTCG ((((((((..(((((((((+)))))))))..))))))))” here?
Answer: Its Tm is 50.3 °C.

Question: For “CGACGTGCCTAATGTGCTG+CAGCACATGAGGCACGTCG ((((((((((.((((((((+)))))))).))))))))))”, which Tm is on record?
Answer: Its Tm is 58.5 °C.

Question: Which Tm does the source give for “CGACGTGCCGGATGTGCTG+CAGCACATCCGGCACGTCG (((((((((((((((((((+)))))))))))))))))))” here?
Answer: The Tm was 68.2 °C.

Question: For “CGACGTGCAGGATGTGCTG+CAGCACATGTGGCACGTCG ((((((((...((((((((+))))))))...))))))))”, which Tm is on record?
Answer: The Tm was 50.9 °C.

Question: Which Tm does the source give for “CGACGTGCAGTATGTGCTG+CAGCACATGAGGCACGTCG ((((((((...((((((((+))))))))...))))))))” here?
Answer: The Tm was 51.4 °C.

Question: Which Tm does the source give for “CGACGTGCACTATGTGCTG+CAGCACATAGCGCACGTCG ((((((((.((((((((((+)))))))))).))))))))” here?
Answer: The Tm was 54.8 °C.

Question: Which Tm does the source give for “CGACGTGCGGAATGTGCTG+CAGCACATTATGCACGTCG ((((((((..(((((((((+)))))))))..))))))))” here?
Answer: The Tm was 55.4 °C.

Question: With “CGACGTGCGCGATGTGCTG+CAGCACATTTCGCACGTCG (((((((((..((((((((+))))))))..)))))))))” as the substance, how does the Tm read?
Answer: The Tm was 53.5 °C.

Question: Which Tm does the source give for “CGACGTGCTCGATGTGCTG+CAGCACATAACGCACGTCG ((((((((...((((((((+))))))))...))))))))” here?
Answer: The Tm was 49 °C.

Question: For “CGACGTGCTTTATGTGCTG+CAGCACATATTGCACGTCG ((((((((..(((((((((+)))))))))..))))))))”, which Tm is on record?
Answer: The Tm was 51.2 °C.

Question: For “CGACGTGCGGTATGTGCTG+CAGCACATTGCGCACGTCG (((((((((..((((((((+))))))))..)))))))))”, which Tm is on record?
Answer: Its Tm is 55.4 °C.

Question: With “CGACGTGCGATATGTGCTG+CAGCACATGAAGCACGTCG ((((((((...((((((((+))))))))...))))))))” as the substance, how does the Tm read?
Answer: Its Tm is 56.1 °C.

Question: For “CGACGTGCATAATGTGCTG+CAGCACATGTCGCACGTCG ((((((((...((((((((+))))))))...))))))))”, which Tm is on record?
Answer: Its Tm is 52.2 °C.

Question: Which Tm does the source give for “CGACGTGCGTGATGTGCTG+CAGCACATCACGCACGTCG (((((((((((((((((((+)))))))))))))))))))” here?
Answer: Its Tm is 66.2 °C.

Question: With “CGACGTGCCGTATGTGCTG+CAGCACATAAAGCACGTCG ((((((((..(((((((((+)))))))))..))))))))” as the substance, how does the Tm read?
Answer: The Tm was 51.5 °C.

Question: With “CGACGTGCCTCATGTGCTG+CAGCACATGTTGCACGTCG ((((((((..(((((((((+)))))))))..))))))))” as the substance, how does the Tm read?
Answer: Its Tm is 52.3 °C.

Question: With “CGACGTGCCTCATGTGCTG+CAGCACATTTAGCACGTCG ((((((((...((((((((+))))))))...))))))))” as the substance, how does the Tm read?
Answer: The Tm was 47.5 °C.

Question: Which Tm does the source give for “CGACGTGCCTAATGTGCTG+CAGCACATCGTGCACGTCG ((((((((...((((((((+))))))))...))))))))” here?
Answer: The Tm was 43.1 °C.

Question: For “CGACGTGCTTAATGTGCTG+CAGCACATTTGGCACGTCG ((((((((..(((((((((+)))))))))..))))))))”, which Tm is on record?
Answer: Its Tm is 53.4 °C.

Question: With “CGACGTGCTTAATGTGCTG+CAGCACATTCAGCACGTCG (((((((((.(((((((((+))))))))).)))))))))” as the substance, how does the Tm read?
Answer: The Tm was 55.5 °C.

Question: With “CGACGTGCTTCATGTGCTG+CAGCACATATTGCACGTCG ((((((((...((((((((+))))))))...))))))))” as the substance, how does the Tm read?
Answer: The Tm was 49.1 °C.

Question: With “CGACGTGCGCGATGTGCTG+CAGCACATCACGCACGTCG (((((((((.(((((((((+))))))))).)))))))))” as the substance, how does the Tm read?
Answer: The Tm was 62.2 °C.

Question: For “CGACGTGCCGCATGTGCTG+CAGCACATAGCGCACGTCG ((((((((...((((((((+))))))))...))))))))”, which Tm is on record?
Answer: Its Tm is 53.9 °C.

Question: Which Tm does the source give for “CGACGTGCAATATGTGCTG+CAGCACATTAAGCACGTCG ((((((((...((((((((+))))))))...))))))))” here?
Answer: The Tm was 50.1 °C.

Question: With “CGACGTGCCTGATGTGCTG+CAGCACATGGAGCACGTCG ((((((((...((((((((+))))))))...))))))))” as the substance, how does the Tm read?
Answer: The Tm was 51.6 °C.

Question: For “CGACGTGCGGGATGTGCTG+CAGCACATACCGCACGTCG ((((((((((.((((((((+)))))))).))))))))))”, which Tm is on record?
Answer: The Tm was 63.1 °C.

Question: For “CGACGTGCCAGATGTGCTG+CAGCACATGCCGCACGTCG ((((((((...((((((((+))))))))...))))))))”, which Tm is on record?
Answer: The Tm was 49.5 °C.

Question: For “CGACGTGCGTCATGTGCTG+CAGCACATTAAGCACGTCG ((((((((.(.((((((((+)))))))).).))))))))”, which Tm is on record?
Answer: The Tm was 53.3 °C.
